The text below walks through data of patent US20260347476 (published 2026).

Usually Kd stands for the concentration at which binding is half-saturated. Read a low Kd as tighter binding.

Assay [1] addresses T1, PD-1 (human, UniProt Q15116). The assay can be described thus: SPR, anti-human Fc capture, additional production. (In general: In SPR one partner is held on a chip, and binding of the other changes the refractive index at the surface.)
In assay [2] the target is T1, PD-1. Description: SPR, protein A capture.
In assay [3] the target is T1, PD-1. The assay can be described thus: SPR, PD1 surface.
Assay [4] has as its target T1, PD-1. Description: SPR, protein A capture. This is another data set of the same source.
Assay [5] concerns the target T2, IL-15 (human, UniProt P40933). The assay can be described thus: SPR, PD1 capture, additional production.
The target in assay [6] is T2, IL-15. Description: SPR, PD1 capture.
The target of assay [7] is T2, IL-15. The assay can be described thus: SPR, anti-human Fc capture, additional production.
Assay [8] concerns the target T2, IL-15. Description: SPR, anti-human Fc capture.
For assay [9], the target named is T3, IL-15Rbetagamma heterodimer (human, UniProt P14784).
T3 chain 1: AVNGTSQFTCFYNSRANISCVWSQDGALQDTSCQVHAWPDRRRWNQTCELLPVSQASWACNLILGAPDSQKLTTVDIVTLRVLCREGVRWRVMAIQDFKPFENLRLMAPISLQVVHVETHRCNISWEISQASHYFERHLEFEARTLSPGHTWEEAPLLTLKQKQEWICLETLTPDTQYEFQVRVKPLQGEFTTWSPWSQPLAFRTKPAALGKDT
T3 chain 2: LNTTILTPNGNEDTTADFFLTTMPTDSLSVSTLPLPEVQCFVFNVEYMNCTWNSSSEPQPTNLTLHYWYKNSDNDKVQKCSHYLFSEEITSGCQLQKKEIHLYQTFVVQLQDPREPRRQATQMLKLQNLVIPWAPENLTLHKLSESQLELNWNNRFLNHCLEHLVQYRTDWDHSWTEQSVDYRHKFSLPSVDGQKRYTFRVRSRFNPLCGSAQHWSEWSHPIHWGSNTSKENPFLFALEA
The assay can be described thus: SPR, PD1 capture.

Assay [10] addresses T3, IL-15Rbetagamma heterodimer. The assay can be described thus: SPR, anti-human Fc capture.
The target is the same in assay [11]. Description: SPR, anti-human Fc capture, IL-15 and PD1 bound.
For assay [12] the target is unchanged. The assay can be described thus: SPR, PD1 capture, additional production.

T2 sequence (P40933 49-162): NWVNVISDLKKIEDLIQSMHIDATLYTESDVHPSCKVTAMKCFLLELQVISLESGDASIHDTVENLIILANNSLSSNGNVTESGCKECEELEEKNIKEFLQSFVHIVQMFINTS
T1 sequence (Q15116 25-167): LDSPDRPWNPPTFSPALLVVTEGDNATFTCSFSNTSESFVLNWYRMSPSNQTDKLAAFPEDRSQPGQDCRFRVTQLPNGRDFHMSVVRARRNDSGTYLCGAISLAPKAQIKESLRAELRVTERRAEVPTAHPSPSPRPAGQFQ

B1: RV20 PD-1 arm (antibody, V domains shown)
VH: QVQLVQSGVEVKKPGASVKVSCKASGYTFTNYYMYWVRQAPGQCLEWMGGINPSNGGTNFNEKFKNRVTLTTDSSTTTAYMELKSLQFDDTAVYYCARRDYRFDMGFDYWGQGTTVTVSS
VL: EIVLTQSPATLSLSPGERATLSCRASKGVSTSGYSYLHWYQQKPGQAPRLLIYLASYLESGVPARFSGSGSGTDFTLTISSLEPEDFAVYYCQHSRDLPLTFGCGTKVEIK
Regarding B1, the results for the Kd in assay [1], in [2] and in [3] were 3.99 nM, 269 nM and 17.2 nM, respectively.

B2: RV26 PD-1 arm (antibody, V domains shown)
VH: QVQLVQSGVEVKKPGASVKVSCKASGYTFTNYYMYWVRQAPGQCLEWMGGINPSNGGTNFNEKFKNRVTLTTDSSTTTAYMELKSLQFDDTAVYYCARRDYRFDMGFDYWGQGTTVTVSS
VL: EIVLTQSPATLSLSPGERATLSCRASKGVSTSGYSYLHWYQQKPGQAPRLLIYLASYLESGVPARFSGSGSGTDFTLTISSLEPEDFAVYYCQHSRDLPLTFGCGTKVEIK
As for B2, the dissociation constant Kd in assay [3] is 2.19 nM.

B3: RV19 PD-1 arm (antibody, V domains shown)
VH: QVQLVQSGVEVKKPGASVKVSCKASGYTFTNYYMYWVRQAPGQCLEWMGGINPSNGGTNFNEKFKNRVTLTTDSSTTTAYMELKSLQFDDTAVYYCARRDYRFDMGFDYWGQGTTVTVSS
VL: EIVLTQSPATLSLSPGERATLSCRASKGVSTSGYSYLHWYQQKPGQAPRLLIYLASYLESGVPARFSGSGSGTDFTLTISSLEPEDFAVYYCQHSRDLPLTFGCGTKVEI
As for B3, the binding result in assay [4] is reported as “no binding”.

B4: RV30 IL-15 arm (antibody, V domains shown)
VH: QVQLVQSGAEVKKPGASVKVSCKASGYSFSSFGISWVRQAPGQGLEWLGWISAFNGYTKYAQKFQDRVTMTTDTSTSTAYMELRSLRSDDTAVYYCARDPAAWPLQQSLAWFDPWGQGTMVTVSS
VL: QSVLTQPPSASGTPGQRVTISCSGSTSNLKRNYVYWYQQLPGTAPKLLIYRDRRRPSGVPDRFSGSKSGTSASLAISGLRSEDEADYYCAWYDRELSEWVFGGGTKLTVL
On to B4, for which the Kd is 0.85 nM in assay [5], 0.452 nM in assay [6], 0.0664 nM in [7] and 0.077 nM in assay [8].

B5: RV37:IL-15 complex (antibody)
chain 1: QVQLVQSGAEVKKPGASVKVSCKASGYSFSSFGISWVRQAPGQGLEWLGWISAFNGYTKYAQKFQDRVTMTTDTSTSTAYMELRSLRSDDTAVYYCARDPAAWPLQQSLAWFDPWGQGTMVTVSS
chain 2: QSVLTQPPSASGTPGQRVTISCSGSTSNLKRNYVYWYQQLPGTAPKLLIYRDRRRPSGVPDRFSGSKSGTSASLAISGLRSEDEADYYCAWYDRELSEWVFGGGTKLTVL
chain 3: not shown
For B5, the Kd in assay [9] turned out to be 0.693 nM; in [10], 0.986 nM; in assay [11], 0.848 nM.

B6: RV20 IL-15 arm (antibody, V domains shown)
VH: QVQLVQSGAEVKKPGASVKVSCKASGYSFSSFGISWVRQAPGQGLEWLGWISAFNGYTKYAQKFQDRVTMTTDTSTSTAYMELRSLRSDDTAVYYCARDPAAWPLQQSLAWFDPWGQGTMVTVSS
VL: QSVLTQPPSASGTPGQRVTISCSGSTSNLKRNYVYWYQQLPGTAPKLLIYRDRRRPSGVPDRFSGSKSGTSASLAISGLRSEDEADYYCAWYDRELSEWVFGGGTKLTVL
Turning to B6, the Kd came out at 0.169 nM in assay [5], 0.0531 nM in assay [7] and 0.0519 nM in assay [8].

B7: RV36 IL-15 arm (antibody, V domains shown)
VH: QVQLVQSGAEVKKPGASVKVSCKASGYSFSSFGISWVRQAPGQGLEWLGWISAFNGYTKYAQKFQDRVTMTTDTSTSTAYMELRSLRSDDTAVYYCARDPAAWPLQQSLAWFDPWGQGTMVTVSS
VL: QSVLTQPPSASGTPGQRVTISCSGSTSNLKRNYVYWYQQLPGTAPKLLIYRDRRRPSGVPDRFSGSKSGTSASLAISGLRSEDEADYYCAWYDRELSEWVFGGGTKLTVL
Regarding B7, the Kd in assay [6] was determined as 0.111 nM; in assay [8], 0.116 nM.

B8: RV32 IL-15 arm (antibody, V domains shown)
VH: QVQLVQSGAEVKKPGASVKVSCKASGYSFSSFGISWVRQAPGQGLEWLGWISAFNGYTKYAQKFQDRVTMTTDTSTSTAYMELRSLRSDDTAVYYCARDPAAWPLQQSLAWFDPWGQGTMVTVSS
VL: QSVLTQPPSASGTPGQRVTISCSGSTSNLKRNYVYWYQQLPGTAPKLLIYRDRRRPSGVPDRFSGSKSGTSASLAISGLRSEDEADYYCAWYDRELSEWVFGGGTKLTVL
In the case of B8, the Kd in assay [6] was 0.352 nM; in assay [8] it was 0.108 nM.

B9: RV30:IL-15 complex (antibody)
chain 1: QVQLVQSGAEVKKPGASVKVSCKASGYSFSSFGISWVRQAPGQGLEWLGWISAFNGYTKYAQKFQDRVTMTTDTSTSTAYMELRSLRSDDTAVYYCARDPAAWPLQQSLAWFDPWGQGTMVTVSS
chain 2: QSVLTQPPSASGTPGQRVTISCSGSTSNLKRNYVYWYQQLPGTAPKLLIYRDRRRPSGVPDRFSGSKSGTSASLAISGLRSEDEADYYCAWYDRELSEWVFGGGTKLTVL
chain 3: not shown
As for B9, the equilibrium dissociation constant (Kd) was determined as 0.828 nM in assay [9], 0.665 nM in assay [12], 0.849 nM in assay [10] and 0.706 nM in [11].

B10: RV31 IL-15 arm (antibody, V domains shown)
VH: QVQLVQSGAEVKKPGASVKVSCKASGYSFSSFGISWVRQAPGQGLEWLGWISAFNGYTKYAQKFQDRVTMTTDTSTSTAYMELRSLRSDDTAVYYCARDPAAWPLQQSLAWFDPWGQGTMVTVSS
VL: QSVLTQPPSASGTPGQRVTISCSGSTSNLKRNYVYWYQQLPGTAPKLLIYRDRRRPSGVPDRFSGSKSGTSASLAISGLRSEDEADYYCAWYDRELSEWVFGGGTKLTVL
Take B10: the Kd came to 0.717 nM in [6] and 0.18 nM in assay [8].

B11: RV20:IL-15 complex (antibody)
chain 1: QVQLVQSGAEVKKPGASVKVSCKASGYSFSSFGISWVRQAPGQGLEWLGWISAFNGYTKYAQKFQDRVTMTTDTSTSTAYMELRSLRSDDTAVYYCARDPAAWPLQQSLAWFDPWGQGTMVTVSS
chain 2: QSVLTQPPSASGTPGQRVTISCSGSTSNLKRNYVYWYQQLPGTAPKLLIYRDRRRPSGVPDRFSGSKSGTSASLAISGLRSEDEADYYCAWYDRELSEWVFGGGTKLTVL
chain 3: not shown
On to B11, for which the Kd in [9] was 0.667 nM; in assay [12], 0.726 nM; in assay [10] it was 0.852 nM.
